# Read-outs that look alike come from different tables or passages of the source.
# What was measured:
# [1] = target: EL222 L120K variant (Erythrobacter litoralis HTCC2594); experiment: SEC-MALS
# [2] = target: EL222 S137Y variant (Erythrobacter litoralis HTCC2594); experiment: SEC-MALS
# [3] = target: EL222 V41I:L52I:A79Q:V121I variant (AQTrip) (Erythrobacter litoralis HTCC2594); experiment: SEC-MALS
# [4] = target: EL222 V41I:L52I:A79Q:V121I variant (AQTrip) (Erythrobacter litoralis HTCC2594); experiment: SEC-MALS; remark: listed apart in the source
# [5] = target: EL222 V41I:L52I:A79Q:V121I variant (AQTrip) (Erythrobacter litoralis HTCC2594); experiment: SEC-MALS; remark: listed apart in the source
# [6] = target: the molecule itself; experiment: native gel or EMSA
molecule,measurement,setting,value
EL222 L120K variant (natural protein),stoichiometry N,[1],2
EL222 S137Y variant (natural protein),stoichiometry N,[2],2
EL222 V41I:L52I:A79Q:V121I variant (AQTrip) (natural protein),stoichiometry N,[3],4
same,stoichiometry N,[4],2
same,stoichiometry N,[5],2
"His6-Gβ1-tagged wild-type EL222 (natural protein, Erythrobacter litoralis HTCC2594, UniProt Q2NB98 1-225, looked up) MLDMGQDRPIDGSGAPGADDTRVEVQPPAQWVLDLIEASPIASVVSDPRLADNPLIAINQAFTDLTGYSEEECVGRNCRFLAGSGTEPWLTDKIRQGVREHKPVLVEILNYKKDGTPFRNAVLVAPIYDDDDELLYFLGSQVEVDDDQPNMGMARRERAAEMLKTLSPRQLEVTTLVASGLRNKEVAARLGLSEKTVKMHRGLVMEKLNLKTSADLVRIAVEAGI",stoichiometry N,[6],2
